Measurements: patent CN114437226A (HANGZHOU CYANINE INGENKANG BIOTECHNOLOGY LTD COMPANY, dated 2022)

T1: 人白介素22(IL22)(Sino Biological) (human, UniProt Q9GZX6 34-179)
T1 sequence (looked up): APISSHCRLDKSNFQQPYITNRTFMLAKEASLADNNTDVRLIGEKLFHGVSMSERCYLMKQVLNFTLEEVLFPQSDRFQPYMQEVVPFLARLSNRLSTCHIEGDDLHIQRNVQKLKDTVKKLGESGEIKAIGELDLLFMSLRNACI


Target: T1, 人白介素22(IL22)(Sino Biological)
Experiment: ELISA, IL22-coated plate (Fig 11)

| binding result | Binder |
| --- | --- |
| binds | FezHλ-ClaH(K218C)κ(F118C) (bispecific antibody, human IgG1, lambda, also called K218C/F118C) heavy 1: QVQLVQSGAEVKKPGASVKVSCKASGYTFTNYYMHWVRQAPGQGLEWVGWINPYTGSAFYAQKFRGRVTMTRDTSISTAYMELSRLRSDDTAVYYCAREPEKFDSDDSDVWGRGTLVTVSSASTKGPSVFPLAPSSKSTSGGTAALGCLVKDYFPEPVTVSWNSGALTSGVHTFPAVLQSSGLYSLSSVVTVPSSSLGTQTYICNVNHKPSNTKVDKKVEPKSCDKTHTCPPCPAPELLGGPSVFLFPPKPKDTLMISRTPEVTCVVVDVSHEDPEVKFNWYVDGVEVHNAKTKPREEQYNSTYRVVSVLTVLHQDWLNGKEYKCKVSNKALPAPIEKTISKAKGQPREPQVYTLPPSREEMTKNQVSLSCAVKGFYPSDIAVEWESNGQPENNYKTTPPVLDSDGSFFLVSKLTVDKSRWQQGNVFSCSVMHEALHNRFTQKSLSLSPGHHHHHH light 1: QAVLTQPPSVSGAPGQRVTISCTGSSSNIGAGYGVHWYQQLPGTAPKLLIYGDSNRPSGVPDRFSGSKSGTSASLAITGLQAEDEADYYCQSYDNSLSGYVFGGGTQLTVLGQPKAAPSVTLFPPSSEELQANKATLVCLISDFYPGAVTVAWKADSSPVKAGVETTTPSKQSNNKYAASSYLSLTPEQWKSHRSYSCQVTHEGSTVEKTVAPTECS heavy 2: not shown light 2: AIQMTQSPSSLSASVGDRVTITCQASQSINNELSWYQQKPGKAPKLLIYRASTLASGVPSRFSGSGSGTDFTLTISSLQPDDFATYYCQQGYSLRNIDNAFGGGTKVEIKRTVAAPSVFICPPSDEQLKSGTASVVCLLNNFYPREAKVQWKVDNALQSGNSQESVTEQDSKDSTYSLSSTLTLSKADYEKHKVYACEVTHQGLSSPVTKSFNRGEV |
| binds | FezHλ-ClaH(S132C)κ(F116C) (bispecific antibody, human IgG1, lambda, also called S132C/F116C) heavy 1: QVQLVQSGAEVKKPGASVKVSCKASGYTFTNYYMHWVRQAPGQGLEWVGWINPYTGSAFYAQKFRGRVTMTRDTSISTAYMELSRLRSDDTAVYYCAREPEKFDSDDSDVWGRGTLVTVSSASTKGPSVFPLAPSSKSTSGGTAALGCLVKDYFPEPVTVSWNSGALTSGVHTFPAVLQSSGLYSLSSVVTVPSSSLGTQTYICNVNHKPSNTKVDKKVEPKSCDKTHTCPPCPAPELLGGPSVFLFPPKPKDTLMISRTPEVTCVVVDVSHEDPEVKFNWYVDGVEVHNAKTKPREEQYNSTYRVVSVLTVLHQDWLNGKEYKCKVSNKALPAPIEKTISKAKGQPREPQVYTLPPSREEMTKNQVSLSCAVKGFYPSDIAVEWESNGQPENNYKTTPPVLDSDGSFFLVSKLTVDKSRWQQGNVFSCSVMHEALHNRFTQKSLSLSPGHHHHHH light 1: QAVLTQPPSVSGAPGQRVTISCTGSSSNIGAGYGVHWYQQLPGTAPKLLIYGDSNRPSGVPDRFSGSKSGTSASLAITGLQAEDEADYYCQSYDNSLSGYVFGGGTQLTVLGQPKAAPSVTLFPPSSEELQANKATLVCLISDFYPGAVTVAWKADSSPVKAGVETTTPSKQSNNKYAASSYLSLTPEQWKSHRSYSCQVTHEGSTVEKTVAPTECS heavy 2: not shown light 2: AIQMTQSPSSLSASVGDRVTITCQASQSINNELSWYQQKPGKAPKLLIYRASTLASGVPSRFSGSGSGTDFTLTISSLQPDDFATYYCQQGYSLRNIDNAFGGGTKVEIKRTVAAPSVCIFPPSDEQLKSGTASVVCLLNNFYPREAKVQWKVDNALQSGNSQESVTEQDSKDSTYSLSSTLTLSKADYEKHKVYACEVTHQGLSSPVTKSFNRGEV |
